These are literature values, as cited in PMC4390431.

Like-named read-outs stand apart in the source and are kept apart here.

The target in series [1] is IscU (Escherichia coli) (UniProt P0ACD4). In words: SPR.
For series [2] the target is unchanged. In words: SPR. The source holds these as a separate data set.

UniProt P0ACD4, sequence (P0ACD4 whole entry): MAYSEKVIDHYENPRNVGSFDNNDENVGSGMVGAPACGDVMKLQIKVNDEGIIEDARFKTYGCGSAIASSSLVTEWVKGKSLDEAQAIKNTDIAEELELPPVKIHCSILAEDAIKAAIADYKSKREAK

Usually Kd stands for the equilibrium constant for the complex coming apart. Regarding HscA (from UniProt P0A6Z1), the Kd in the series with IscU (Escherichia coli) [1] is 0.1 µM; in the series with IscU (Escherichia coli) [2] it was 37 µM.
